The values that follow come from patent US20120258482A1, “PCNA […]” (INDIANA UNIVERSITY RESEARCH AND TECHNOLOGY CORPORATION, priority 2009, published 2012).

The data set has as its system purified recombinant PCNA. Briefly: Vapor diffusion assay of anti-Flag immunoprecipitates with purified recombinant PCNA. The class given is biochemical, human. As to conditions: anti-Flag immunoprecipitate from SK-Br-3 cells, 2 μg 6× His-PCNA. On the procedure: Vapor diffusion assay. The assay was performed basically as previously described (Murray, E. D., Jr. & Clarke, S. J Biol Chem 259, 10722-10732 (1984). MCF7 breast cancer cell extracts were assayed 1-2 h in the presence of [^3H-methyl]-SAM (NEN). Following incubation, extracts were equilibrated with 100 mM NaOH with 2% SDS and spotted onto filter paper folded into an accordion pleat and placed into the neck of a vial above scintillation fluid. ^3H-methanol present in the scintillation fluid was measured the following day (See FIG. 1).
Protein expression and purification. HiTrap phenyl Sepharose HP and Superdex S200 columns were purchased from GE Biosciences. Chromatography was performed using a Biologic DuoFlow (BioRad). […] The CBP tag lacks both aspartic and glutamic acids. […] (Podust et al., Biochemistry 34, 8869-8875 (1995). A eukaryotic expression vector expressing a Flag-Arm1 fusion was transfected into and transiently expressed in SK-Br-3 cells with Fugene 6 (Roche). Anti-Flag immunoprecipitations were performed with Anti-Flag M2 Affintiy Gel (Sigma) and detected by Western analysis using anti-DDK antibodies (Origene). PIP-affinity beads were generated by covalently coupling synthetic p21 PIP peptide (Anaspec) to CH Sepharose (GE Biosciences). […]

B1: Flag-Arm1: Flag-tagged C6orf211 protein fusion, PCNA-dependent carboxyl methyltransferase (SEQ ID NO: 33) (protein, listed as Homo sapiens)
chain: MAVVPASLSGQDVGSFAYLTIKDRIPQILTKVIDTLHRHKSEFFEKHGEEGVEAEKKAISLLSKLRNELQTDKPFIPLVEKFVDTDIWNQYLEYQQSLLNESDGKSRWFYSPWLLVECYMYRRIHEAIIQSPPIDYFDVFKESKEQNFYGSQESIIALCTHLQQLIRTIEDLDENQLKDEFFKLLQISLWGNKCDLSLSGGESSSQNTNVLNSLEDLKPFILLNDMEHLWSLLSNCKKTREKASATRVYIVLDNSGFELVTDLILADFLLSSELATEVHFYGKTIPWFVSDTTIHDFNWLIEQVKHSNHKWMSKCGADWEEYIKMGKWVYHNHIFWTLPHEYCAMPQVAPDLYAELQKAHLILFKGDLNYRKLTGDRKWEFSVPFHQALNGFHPAPLCTIRTLKAEIQVGLQPGQGEQLLASEPSWWTTGKYGIFQYDGPL
modifications: Flag tag
With B1, the “PCNA-dependent carboxyl methyltransferase activity” value is given as “Significant levels”.
